Target: Coxsackievirus A6 (CVA6) strain 54203/HeB/CHN/2012 mature virion (coxsackievirus A6 strain 54203/HeB/CHN/2012)

B1: His-tagged human KRM1 ectodomain (residues A23-G373) (domain or fragment)
chain: APSPGLGPECFTANGADYRGTQNWTALQGGKPCLFWNETFQHPYNTLKYPNGEGGLGEHNYCRNPDGDVSPWCYVAEHEDGVYWKYCEIPACQMPGNLGCYKDHGNPPPLTGTSKTSNKLTIQTCISFCRSQRFKFAGMESGYACFCGNNPDYWKYGEAASTECNSVCFGDHTQPCGGDGRIILFDTLVGACGGNYSAMSSVVYSPDFPDTYATGRVCYWTIRVPGASHIHFSFPLFDIRDSADMVELLDGYTHRVLARFHGRSRPPLSFNVSLDFVILYFFSDRINQAQGFAVLYQAVKEELPQERPAVNQTVAEVITEQANLSVSAARSSKVLYVITTSPSHPPQTVPG
share of A-particles among the particles after incubation of virions with KRM1 ectodomain (1:120, 35 min, room temperature; cryo-EM classification); none in the untreated sample: 69.8%
